Measured values from the supplement of paper PMC5998384.

Columns and labels:
HeLa Kyoto [1] = experiment: solubility in G1/S (NP-40 vs SDS abundance) (log2 ratio); higher = more soluble; details: cell cycle stage: G1/S
HeLa Kyoto [2] = experiment: solubility change mitosis vs G1/S (difference of NP-40 vs SDS log2 ratios) (log2 ratio difference); higher = more soluble in mitosis
HeLa Kyoto [3] = experiment: melting temperature (median over replicates), in situ; higher = more thermally stable
HeLa Kyoto [4] = experiment: thermal stability score vs G1/S (z-score of summed log2 fold changes over temperatures); higher = more thermally stable than in G1/S
[5] = cell cycle stage: early G1 (4.5 h after nocodazole release)
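For melting temperature (median over replicates), in situ in this document: HeLa Kyoto cells synchronized by double thymidine or nocodazole block, proteins quantified by TMT10plex mass spectrometry, three independent biological replicates.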
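For solubility change mitosis vs G1/S (difference of NP-40 vs SDS log2 ratios) in this document: synchronized HeLa Kyoto cells (double thymidine block for G1/S, nocodazole release for mitosis), protein amounts in NP-40 versus SDS lysates quantified by mass spectrometry, three biological replicates.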
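For solubility in G1/S (NP-40 vs SDS abundance) in this document: HeLa Kyoto cells arrested at G1/S by double thymidine block, proteins quantified by TMT10plex mass spectrometry in mild NP-40 versus SDS extracts, three biological replicates.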
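For thermal stability score vs G1/S (z-score of summed log2 fold changes over temperatures) in this document: synchronized HeLa Kyoto cells, proteins quantified by TMT10plex mass spectrometry, three biological replicates, mitosis taken 0.5 h after nocodazole release, G1/S directly after double thymidine block.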

Chain of STK38L (chain, as listed by the source): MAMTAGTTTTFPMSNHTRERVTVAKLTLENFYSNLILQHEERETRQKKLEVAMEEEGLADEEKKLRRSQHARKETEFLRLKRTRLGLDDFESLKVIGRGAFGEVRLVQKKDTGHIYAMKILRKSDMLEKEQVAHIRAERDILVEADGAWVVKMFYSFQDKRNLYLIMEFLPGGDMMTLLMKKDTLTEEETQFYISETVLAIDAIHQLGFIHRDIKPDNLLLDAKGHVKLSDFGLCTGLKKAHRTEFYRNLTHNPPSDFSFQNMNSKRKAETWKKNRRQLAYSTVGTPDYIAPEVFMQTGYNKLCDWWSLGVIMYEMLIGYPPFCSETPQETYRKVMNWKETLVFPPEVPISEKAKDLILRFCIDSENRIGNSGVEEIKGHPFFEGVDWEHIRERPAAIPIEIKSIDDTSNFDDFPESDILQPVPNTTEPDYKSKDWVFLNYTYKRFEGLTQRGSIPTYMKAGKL
Chain of SORCS2 (chain, as listed by the source): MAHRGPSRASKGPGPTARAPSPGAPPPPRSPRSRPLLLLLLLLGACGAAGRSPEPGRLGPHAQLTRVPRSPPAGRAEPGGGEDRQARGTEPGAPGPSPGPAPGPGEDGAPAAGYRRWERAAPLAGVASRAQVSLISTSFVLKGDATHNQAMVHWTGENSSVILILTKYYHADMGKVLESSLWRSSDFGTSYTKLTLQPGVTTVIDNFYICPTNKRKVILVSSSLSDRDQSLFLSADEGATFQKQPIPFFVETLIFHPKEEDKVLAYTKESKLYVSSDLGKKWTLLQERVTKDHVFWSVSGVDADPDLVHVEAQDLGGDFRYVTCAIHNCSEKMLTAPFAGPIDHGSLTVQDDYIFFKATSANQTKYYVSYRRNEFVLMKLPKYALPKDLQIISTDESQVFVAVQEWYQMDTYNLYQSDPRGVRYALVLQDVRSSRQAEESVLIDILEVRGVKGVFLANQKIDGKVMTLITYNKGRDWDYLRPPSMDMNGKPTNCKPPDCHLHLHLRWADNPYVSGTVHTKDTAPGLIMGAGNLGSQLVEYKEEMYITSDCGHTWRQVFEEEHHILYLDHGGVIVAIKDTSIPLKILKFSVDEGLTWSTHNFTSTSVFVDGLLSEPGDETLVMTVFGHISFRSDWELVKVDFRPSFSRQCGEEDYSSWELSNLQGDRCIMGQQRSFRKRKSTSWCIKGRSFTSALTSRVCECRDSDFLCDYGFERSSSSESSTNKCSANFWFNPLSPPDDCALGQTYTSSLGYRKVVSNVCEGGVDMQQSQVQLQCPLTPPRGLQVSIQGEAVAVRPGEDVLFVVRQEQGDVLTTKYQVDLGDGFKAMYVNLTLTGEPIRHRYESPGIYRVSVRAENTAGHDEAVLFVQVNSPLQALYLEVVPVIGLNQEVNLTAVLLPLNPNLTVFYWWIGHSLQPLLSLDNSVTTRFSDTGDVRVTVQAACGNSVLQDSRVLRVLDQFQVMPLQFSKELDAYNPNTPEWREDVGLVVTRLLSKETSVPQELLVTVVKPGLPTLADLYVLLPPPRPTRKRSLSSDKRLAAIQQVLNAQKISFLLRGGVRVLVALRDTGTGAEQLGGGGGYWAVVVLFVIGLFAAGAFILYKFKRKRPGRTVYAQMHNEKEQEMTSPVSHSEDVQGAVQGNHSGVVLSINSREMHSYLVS
Chain of WRAP53 (chain, as listed by the source): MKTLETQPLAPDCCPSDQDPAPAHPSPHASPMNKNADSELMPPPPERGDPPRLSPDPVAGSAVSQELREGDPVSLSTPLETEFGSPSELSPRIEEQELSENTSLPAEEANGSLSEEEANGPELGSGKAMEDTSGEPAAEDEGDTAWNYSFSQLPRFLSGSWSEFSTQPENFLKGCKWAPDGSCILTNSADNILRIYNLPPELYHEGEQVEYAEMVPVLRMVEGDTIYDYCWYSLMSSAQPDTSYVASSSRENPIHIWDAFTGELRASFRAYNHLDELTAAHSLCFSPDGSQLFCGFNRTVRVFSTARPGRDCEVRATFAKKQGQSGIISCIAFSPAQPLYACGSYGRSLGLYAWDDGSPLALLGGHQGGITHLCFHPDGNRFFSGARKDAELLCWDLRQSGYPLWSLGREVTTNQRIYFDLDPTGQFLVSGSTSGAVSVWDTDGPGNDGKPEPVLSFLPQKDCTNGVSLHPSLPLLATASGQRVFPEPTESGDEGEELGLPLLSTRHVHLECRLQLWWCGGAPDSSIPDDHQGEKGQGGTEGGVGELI
Chain of UBE2Q1 (chain, as listed by the source): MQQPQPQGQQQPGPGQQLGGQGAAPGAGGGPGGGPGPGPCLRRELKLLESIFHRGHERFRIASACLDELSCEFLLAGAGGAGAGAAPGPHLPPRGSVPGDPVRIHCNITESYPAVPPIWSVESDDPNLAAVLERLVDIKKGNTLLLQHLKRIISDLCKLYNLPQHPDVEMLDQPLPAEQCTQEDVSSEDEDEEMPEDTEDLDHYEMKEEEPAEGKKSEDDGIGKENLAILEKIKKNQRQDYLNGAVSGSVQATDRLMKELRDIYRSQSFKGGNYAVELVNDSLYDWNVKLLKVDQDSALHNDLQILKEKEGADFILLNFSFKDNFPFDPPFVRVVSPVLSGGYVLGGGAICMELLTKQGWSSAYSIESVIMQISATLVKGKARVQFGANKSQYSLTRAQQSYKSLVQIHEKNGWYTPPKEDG
Chain of THOP1 (chain, as listed by the source): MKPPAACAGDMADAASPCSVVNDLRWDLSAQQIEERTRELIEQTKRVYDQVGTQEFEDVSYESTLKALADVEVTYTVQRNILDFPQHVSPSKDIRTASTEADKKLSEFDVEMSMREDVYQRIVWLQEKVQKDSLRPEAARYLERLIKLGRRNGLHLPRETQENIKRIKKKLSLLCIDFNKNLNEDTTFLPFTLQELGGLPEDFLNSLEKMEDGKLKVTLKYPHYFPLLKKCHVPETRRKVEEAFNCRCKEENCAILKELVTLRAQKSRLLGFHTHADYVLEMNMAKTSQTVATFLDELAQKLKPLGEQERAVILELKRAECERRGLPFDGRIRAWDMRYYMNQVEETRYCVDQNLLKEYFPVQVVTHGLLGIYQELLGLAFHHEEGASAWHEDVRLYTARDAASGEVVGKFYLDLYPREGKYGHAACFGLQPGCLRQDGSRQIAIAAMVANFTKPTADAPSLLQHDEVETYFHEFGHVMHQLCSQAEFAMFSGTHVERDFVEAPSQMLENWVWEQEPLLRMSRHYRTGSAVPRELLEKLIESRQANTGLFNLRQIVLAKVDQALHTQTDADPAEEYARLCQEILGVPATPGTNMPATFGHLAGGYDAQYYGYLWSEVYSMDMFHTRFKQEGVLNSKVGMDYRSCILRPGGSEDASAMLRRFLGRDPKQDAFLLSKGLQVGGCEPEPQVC
Chain of TAF15 (chain, as listed by the source): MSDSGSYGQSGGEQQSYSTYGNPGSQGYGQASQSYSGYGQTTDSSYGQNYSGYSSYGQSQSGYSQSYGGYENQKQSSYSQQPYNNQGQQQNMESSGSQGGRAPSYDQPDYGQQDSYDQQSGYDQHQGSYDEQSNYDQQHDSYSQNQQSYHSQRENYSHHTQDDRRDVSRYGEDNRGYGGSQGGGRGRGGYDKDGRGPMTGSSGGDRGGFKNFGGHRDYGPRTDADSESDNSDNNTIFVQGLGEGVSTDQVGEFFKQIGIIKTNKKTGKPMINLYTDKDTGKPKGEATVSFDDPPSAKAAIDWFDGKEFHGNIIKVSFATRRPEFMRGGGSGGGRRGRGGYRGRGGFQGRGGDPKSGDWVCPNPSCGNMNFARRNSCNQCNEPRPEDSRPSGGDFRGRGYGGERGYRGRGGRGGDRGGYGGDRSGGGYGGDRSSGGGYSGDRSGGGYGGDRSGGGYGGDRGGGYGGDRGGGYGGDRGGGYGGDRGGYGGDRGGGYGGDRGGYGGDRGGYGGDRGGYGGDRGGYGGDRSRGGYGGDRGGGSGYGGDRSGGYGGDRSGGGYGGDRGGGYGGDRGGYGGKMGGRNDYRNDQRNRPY
Chain of SLC7A1 (chain, as listed by the source): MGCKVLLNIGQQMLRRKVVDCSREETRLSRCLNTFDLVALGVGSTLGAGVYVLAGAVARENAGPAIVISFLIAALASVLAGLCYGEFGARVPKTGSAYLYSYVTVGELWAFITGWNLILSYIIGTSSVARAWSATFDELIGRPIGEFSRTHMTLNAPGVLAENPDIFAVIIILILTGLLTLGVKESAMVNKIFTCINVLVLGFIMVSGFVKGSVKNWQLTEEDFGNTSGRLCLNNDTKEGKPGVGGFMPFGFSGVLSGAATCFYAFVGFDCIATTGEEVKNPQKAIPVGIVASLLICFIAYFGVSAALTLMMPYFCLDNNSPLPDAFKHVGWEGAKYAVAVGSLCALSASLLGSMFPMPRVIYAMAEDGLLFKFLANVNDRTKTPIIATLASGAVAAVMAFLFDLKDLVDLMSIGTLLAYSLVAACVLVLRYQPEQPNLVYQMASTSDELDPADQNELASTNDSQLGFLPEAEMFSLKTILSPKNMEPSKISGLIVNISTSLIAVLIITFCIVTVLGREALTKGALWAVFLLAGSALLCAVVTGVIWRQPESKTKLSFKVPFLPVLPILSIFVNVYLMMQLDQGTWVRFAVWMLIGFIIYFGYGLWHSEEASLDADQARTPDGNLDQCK
Chain of SIRT5 (chain, as listed by the source): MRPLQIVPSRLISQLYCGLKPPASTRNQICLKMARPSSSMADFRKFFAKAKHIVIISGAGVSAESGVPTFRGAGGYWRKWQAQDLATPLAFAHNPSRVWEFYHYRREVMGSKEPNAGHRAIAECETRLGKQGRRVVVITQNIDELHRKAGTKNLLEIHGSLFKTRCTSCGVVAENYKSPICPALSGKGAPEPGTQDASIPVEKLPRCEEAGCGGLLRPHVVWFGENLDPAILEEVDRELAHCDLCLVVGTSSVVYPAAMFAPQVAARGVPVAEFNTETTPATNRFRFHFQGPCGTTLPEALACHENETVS
Chain of TIMM17A (chain, as listed by the source): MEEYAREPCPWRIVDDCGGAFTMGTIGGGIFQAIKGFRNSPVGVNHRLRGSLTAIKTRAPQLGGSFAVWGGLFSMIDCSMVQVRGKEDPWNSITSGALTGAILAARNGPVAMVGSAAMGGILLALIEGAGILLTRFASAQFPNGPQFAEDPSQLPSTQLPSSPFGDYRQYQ

| Substance | solubility in G1/S (log2) (HeLa Kyoto [1]) | solubility change mitosis (log2) (HeLa Kyoto [2]) | melting temperature (HeLa Kyoto [3]; cell cycle stage: mitosis) [°C] | thermal stability score (HeLa Kyoto [4]; [5]) | thermal stability score (HeLa Kyoto [4]; cell cycle stage: mitosis) | melting temperature (HeLa Kyoto [3]; cell cycle stage: G1/S) [°C] |
| --- | --- | --- | --- | --- | --- | --- |
| RSBN1 | -0.345 | 0.0741 | 53.1 | -1.37 | -1.2 |  |
| SBF1 | -0.118 | -0.108 | 50.4 | 0.301 | -0.247 | 50.9 |
| SETX | -0.385 | 0.0473 | 51 | 0.199 | 1.04 | 49.9 |
| SIRT5 | 0.419 | -0.233 | 50.9 | -0.174 | 0.987 | 50.9 |
| SLC7A1 | -0.215 | -0.171 | 60.9 | -2.64 | -4.52 | 61.5 |
| SLC38A10 | -0.351 | 0.284 | 54.7 | 2.59 | 0.548 | 54.2 |
| SMARCA2 | -0.129 | -0.051 | 49.7 | 2.43 | 4.33 | 47.8 |
| SON | -1.78 | 1.3 | 49.4 | 0.322 | 4.26 | 47.4 |
| SORCS2 | 0.0123 | -0.162 | 50.4 | -2.23 | -3.21 | 53.7 |
| SPCS2 | 0.173 | -0.0337 | 52.8 | -0.361 | -0.329 | 51.9 |
| SPEN | -0.619 | 0.433 | 50.4 | 1.63 | 4.49 | 49 |
| SRGAP1 | 0.2 | -0.1 | 51.2 | 0.466 | 0.773 | 50.5 |
| SRSF6 | -0.646 | 0.385 | 50.6 | -0.248 | -2.07 | 49.8 |
| STK38L | -0.0449 | -0.074 | 49.3 | 0.62 | 1.53 | 50.2 |
| STRIP1 | 0.0221 | -0.214 | 49.6 | 0.575 | 0.412 | 51.3 |
| SUCLG1 | 0.168 | -0.0912 | 50.9 | -0.306 | -0.375 | 50.8 |
| SVEP1 | -0.163 | -0.0333 | 55.1 | 1.39 | 1.6 | 54.1 |
| TACC3 | 0.351 | 0.304 | 53.1 | -0.722 | 1.13 | 53.3 |

| Substance | solubility in G1/S (log2) (HeLa Kyoto [1]) | solubility change mitosis (log2) (HeLa Kyoto [2]) | melting temperature (HeLa Kyoto [3]; cell cycle stage: mitosis) [°C] | thermal stability score (HeLa Kyoto [4]; [5]) | thermal stability score (HeLa Kyoto [4]; cell cycle stage: mitosis) | melting temperature (HeLa Kyoto [3]; cell cycle stage: G1/S) [°C] |
| --- | --- | --- | --- | --- | --- | --- |
| TAF15 | -0.786 | 0.12 | 53.1 | -0.357 | -4.49 | 51.1 |
| THOP1 | 0.0611 | -0.109 | 56.1 | -1.55 | -2.28 | 56.3 |
| TIMM17A | 0.157 | -0.00894 | 58.7 | -1.93 | -3.23 | 58.5 |
| TNKS1BP1 | -0.0801 | 0.0438 | 59.8 | -3.49 | -3.6 | 57.1 |
| TP53BP1 | -0.0663 | -0.107 | 50.8 | -3.39 | -2.67 | 49.9 |
| TPP2 | -0.0302 | -0.106 | 54.2 | -1.14 | -1.13 | 54.6 |
| TTN | -0.476 | 0.167 | 51.5 | 2.14 | 1.45 | 50.4 |
| UBE2Q1 | 0.255 | -0.042 | 50.3 | 0.426 | 0.875 | 50 |
| UBR1 | -0.252 | -0.26 | 50.3 | 0.878 | 1.16 | 48.6 |
| UBR4 | -0.243 | -0.163 | 50.4 | -0.403 | 0.0628 | 51.3 |
| UBR5 | -0.142 | -0.155 | 49.8 | 1.78 | 5.42 | 47.5 |
| USP9X | -0.226 | -0.134 | 50.6 | -0.0892 | 0.618 | 50.4 |
| VPRBP | -0.225 | -0.0867 | 50.6 | -0.576 | -0.973 | 50.8 |
| VPS13A | -0.236 | -0.144 | 53.7 | -1.93 | -1.94 | 53.6 |
| VWA8 | -0.224 | -0.0997 | 50.4 | 1.66 | 1.12 | 50.3 |
| WDR62 | -0.382 | 0.187 | 49.3 | 0.713 | 1.36 | 49 |
| WRAP53 | -0.0145 | -0.144 | 53.4 | -1.59 | -0.902 | 53.7 |
| YES1 | -0.536 | 0.0165 | 50.9 | 0.418 | 0.409 | 51.2 |
